T1: GST-Fkbp5 (UniProt Q64378 1-456)
T1 sequence (looked up): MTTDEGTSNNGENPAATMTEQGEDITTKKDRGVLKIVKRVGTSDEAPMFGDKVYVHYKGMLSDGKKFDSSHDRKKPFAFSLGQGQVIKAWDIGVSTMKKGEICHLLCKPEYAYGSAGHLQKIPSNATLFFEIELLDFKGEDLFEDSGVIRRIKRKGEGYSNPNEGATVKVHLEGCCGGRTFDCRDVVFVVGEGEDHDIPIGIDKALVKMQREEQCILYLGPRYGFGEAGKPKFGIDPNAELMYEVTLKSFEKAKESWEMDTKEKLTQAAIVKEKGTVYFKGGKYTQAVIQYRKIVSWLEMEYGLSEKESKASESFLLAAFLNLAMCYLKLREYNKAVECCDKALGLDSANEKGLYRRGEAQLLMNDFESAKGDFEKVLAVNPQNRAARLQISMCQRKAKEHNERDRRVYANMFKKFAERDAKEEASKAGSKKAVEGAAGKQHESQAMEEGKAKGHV

T2: GST-Fkbp5-Δ1 (UniProt Q64378 1-456, deletion of amino acids 50-138)
T2 sequence (looked up): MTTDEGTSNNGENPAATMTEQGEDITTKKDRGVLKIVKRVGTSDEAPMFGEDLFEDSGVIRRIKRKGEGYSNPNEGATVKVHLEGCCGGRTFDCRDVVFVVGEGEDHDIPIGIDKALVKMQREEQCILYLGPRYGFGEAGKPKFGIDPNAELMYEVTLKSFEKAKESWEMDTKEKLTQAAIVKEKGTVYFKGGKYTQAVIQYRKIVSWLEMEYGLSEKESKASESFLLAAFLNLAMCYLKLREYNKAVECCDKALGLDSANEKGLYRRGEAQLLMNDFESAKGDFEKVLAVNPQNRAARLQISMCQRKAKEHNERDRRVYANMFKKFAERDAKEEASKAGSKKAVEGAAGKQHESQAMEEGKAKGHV

T3: GST-Fkbp5-Δ2 (UniProt Q64378 1-456, deletion of amino acids 165-251)
T3 sequence (looked up): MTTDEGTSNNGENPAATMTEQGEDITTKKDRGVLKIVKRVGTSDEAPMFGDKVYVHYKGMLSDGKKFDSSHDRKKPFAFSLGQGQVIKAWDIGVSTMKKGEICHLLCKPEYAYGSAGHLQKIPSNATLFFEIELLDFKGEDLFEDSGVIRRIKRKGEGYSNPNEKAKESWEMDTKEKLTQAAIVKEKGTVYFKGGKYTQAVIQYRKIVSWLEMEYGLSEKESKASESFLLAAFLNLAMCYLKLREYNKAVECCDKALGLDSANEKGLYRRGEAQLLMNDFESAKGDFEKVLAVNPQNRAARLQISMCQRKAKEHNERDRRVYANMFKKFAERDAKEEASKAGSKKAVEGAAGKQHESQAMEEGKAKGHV

T4: GST-Fkbp5-W90L (UniProt Q64378 1-456, W90L)
T4 sequence (looked up): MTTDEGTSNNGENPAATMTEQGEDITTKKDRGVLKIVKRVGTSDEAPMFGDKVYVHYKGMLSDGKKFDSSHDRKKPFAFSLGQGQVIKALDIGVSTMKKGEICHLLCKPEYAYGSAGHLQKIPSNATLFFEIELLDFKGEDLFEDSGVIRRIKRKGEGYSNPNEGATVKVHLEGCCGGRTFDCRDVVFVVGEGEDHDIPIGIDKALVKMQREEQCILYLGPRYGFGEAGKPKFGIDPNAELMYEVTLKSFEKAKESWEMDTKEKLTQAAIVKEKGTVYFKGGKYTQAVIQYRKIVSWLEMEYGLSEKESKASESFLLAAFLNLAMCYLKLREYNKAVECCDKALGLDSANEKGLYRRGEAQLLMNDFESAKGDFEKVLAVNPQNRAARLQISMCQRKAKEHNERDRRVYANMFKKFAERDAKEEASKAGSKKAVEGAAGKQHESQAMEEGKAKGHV

T5: GST-Fkbp5-F130Y (UniProt Q64378 1-456, F130Y)
T5 sequence (looked up): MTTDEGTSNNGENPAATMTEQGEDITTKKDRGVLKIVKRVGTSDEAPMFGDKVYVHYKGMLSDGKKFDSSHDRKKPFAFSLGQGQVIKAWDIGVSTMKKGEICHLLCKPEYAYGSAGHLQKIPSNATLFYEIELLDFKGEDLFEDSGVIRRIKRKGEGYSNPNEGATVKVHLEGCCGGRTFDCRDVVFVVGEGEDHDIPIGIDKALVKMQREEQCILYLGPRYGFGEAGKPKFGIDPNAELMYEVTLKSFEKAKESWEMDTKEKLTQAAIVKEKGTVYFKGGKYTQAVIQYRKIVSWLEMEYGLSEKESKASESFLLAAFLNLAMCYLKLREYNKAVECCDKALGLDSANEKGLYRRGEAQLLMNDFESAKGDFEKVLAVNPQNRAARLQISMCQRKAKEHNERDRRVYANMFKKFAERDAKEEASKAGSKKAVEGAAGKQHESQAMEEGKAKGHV

B1: Cdk4-Δ3-6×His (domain or fragment, UniProt P30285 1-200, looked up)
chain: MAATRYEPVAEIGVGAYGTVYKARDPHSGHFVALKSVRVPNGGAAGGGLPVSTVREVALLRRLEAFEHPNVVRLMDVCATSRTDRDIKVTLVFEHIDQDLRTYLDKAPPPGLPVETIKDLMRQFLSGLDFLHANCIVHRDLKPENILVTSNGTVKLADFGLARIYSYQMALTPVVVTLWYRAPEVLLQSTYATPVDMWSV
B2: Cdk4-6×His (natural protein, UniProt P30285 1-303, looked up)
chain: MAATRYEPVAEIGVGAYGTVYKARDPHSGHFVALKSVRVPNGGAAGGGLPVSTVREVALLRRLEAFEHPNVVRLMDVCATSRTDRDIKVTLVFEHIDQDLRTYLDKAPPPGLPVETIKDLMRQFLSGLDFLHANCIVHRDLKPENILVTSNGTVKLADFGLARIYSYQMALTPVVVTLWYRAPEVLLQSTYATPVDMWSVGCIFAEMFRRKPLFCGNSEADQLGKIFDLIGLPPEDDWPREVSLPRGAFAPRGPRPVQSVVPEMEESGAQLLLEMLTFNPHKRISAFRALQHSYLHKEESDAE
B3: Cdk4-Δ1-6×His (domain or fragment, UniProt P30285 101-303, looked up)
chain: RTYLDKAPPPGLPVETIKDLMRQFLSGLDFLHANCIVHRDLKPENILVTSNGTVKLADFGLARIYSYQMALTPVVVTLWYRAPEVLLQSTYATPVDMWSVGCIFAEMFRRKPLFCGNSEADQLGKIFDLIGLPPEDDWPREVSLPRGAFAPRGPRPVQSVVPEMEESGAQLLLEMLTFNPHKRISAFRALQHSYLHKEESDAE
B4: Cdk4-Δ2-6×His (natural protein, UniProt P30285 1-303, looked up)
chain: MAATRYEPVAEIGVGAYGTVYKARDPHSGHFVALKSVRVPNGGAAGGGLPVSTVREVALLRRLEAFEHPNVVRLMDVCATSRTDRDIKVTLVFEHIDQDLGCIFAEMFRRKPLFCGNSEADQLGKIFDLIGLPPEDDWPREVSLPRGAFAPRGPRPVQSVVPEMEESGAQLLLEMLTFNPHKRISAFRALQHSYLHKEESDAE

Columns and labels:
Experiment in all cases: pull-down
[1] = target: T1, GST-Fkbp5
[2] = target: T2, GST-Fkbp5-Δ1
[3] = target: T3, GST-Fkbp5-Δ2
[4] = target: T4, GST-Fkbp5-W90L
[5] = target: T5, GST-Fkbp5-F130Y

Binder | binding result [1] | binding result [2] | binding result [3] | binding result [4] | binding result [5]
B1 | binds |  |  |  | 
B2 | binds | binds | binds | binds | binds
B3 | binds |  |  |  | 
B4 | binds |  |  |  | 

— PMC6350781 (Cell reports, 2018)
